T1: mouse B7-H4 expressed on cells (mouse, UniProt Q7TSP5 25-257)
T1 construct: also called cellular mB7-H4; mB7-H4/CT26
T1 sequence: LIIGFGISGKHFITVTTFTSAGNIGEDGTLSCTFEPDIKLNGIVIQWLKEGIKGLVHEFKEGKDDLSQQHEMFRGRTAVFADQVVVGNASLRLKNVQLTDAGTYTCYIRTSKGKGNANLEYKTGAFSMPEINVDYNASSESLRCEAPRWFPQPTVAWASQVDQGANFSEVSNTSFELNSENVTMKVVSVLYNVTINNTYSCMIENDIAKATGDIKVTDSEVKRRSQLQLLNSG

T2: human B7-H4 expressed on cells (human, UniProt Q7Z7D3 25-282)
T2 construct: Transfected CHO cells or tumor cell lines that carry hB7-H4; also called cellular hB7-H4
T2 sequence: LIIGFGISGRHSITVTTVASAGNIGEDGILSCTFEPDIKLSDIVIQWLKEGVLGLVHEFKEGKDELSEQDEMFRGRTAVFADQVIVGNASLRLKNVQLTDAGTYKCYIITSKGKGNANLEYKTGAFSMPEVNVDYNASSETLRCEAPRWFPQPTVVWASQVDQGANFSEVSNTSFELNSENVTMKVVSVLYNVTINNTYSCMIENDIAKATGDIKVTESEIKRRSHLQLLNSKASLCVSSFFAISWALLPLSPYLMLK

T3: mB7-H4 (soluble mouse B7-H4, construct not named) (mouse, UniProt Q7TSP5 25-257, limits assumed)
T3 sequence: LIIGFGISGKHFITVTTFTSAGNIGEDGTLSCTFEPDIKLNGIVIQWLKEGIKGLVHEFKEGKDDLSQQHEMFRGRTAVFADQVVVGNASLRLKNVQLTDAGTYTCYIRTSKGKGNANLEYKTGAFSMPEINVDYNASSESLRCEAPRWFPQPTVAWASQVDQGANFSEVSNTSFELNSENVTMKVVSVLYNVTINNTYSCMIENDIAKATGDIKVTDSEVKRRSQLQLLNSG

T4: hB7-H4 (soluble human B7-H4, construct not named) (human, UniProt Q7Z7D3 25-259, limits assumed)
T4 construct: also called soluble hB7-H4
T4 sequence: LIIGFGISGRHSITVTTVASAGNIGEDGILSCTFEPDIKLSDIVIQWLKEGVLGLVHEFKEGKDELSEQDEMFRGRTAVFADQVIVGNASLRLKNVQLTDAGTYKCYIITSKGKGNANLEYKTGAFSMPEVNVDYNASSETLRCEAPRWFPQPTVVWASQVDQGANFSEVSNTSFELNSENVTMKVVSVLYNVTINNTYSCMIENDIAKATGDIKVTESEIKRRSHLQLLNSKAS


Key:
[1] = target: T1, mouse B7-H4 expressed on cells; assay: flow cytometry, mB7-H4/CT26 cells
Procedure: (§1) Cells were harvested, washed once, and then re-suspended to the concentration of 1×10⁶ cells/ml in ice cold FACS Buffer. 25 μl of cell suspension was added to each well of a 96-well round-bottom microliter plate. Serially diluted antibodies or fusion proteins were added to each well and incubated for 1 hour at 4° C. Cells were washed three times by centrifugation at 1500 rpm for 5 minutes, and then stained with secondary antibody (1:200 dilution) for 30 min at 4° C. in the dark. Cells were washed once, re-suspended in 100 μl PBS buffer and then analyzed using Guava Flow Cytometry EasyCyte system.

[2] = target: T5, IgC domain of human B7-H4-Fc (human); assay: ELISA, coated hB7-H4 IgC domain
T5 construct: also called hB7-H4 IgC domain
T5 sequence (chain, as listed by the source): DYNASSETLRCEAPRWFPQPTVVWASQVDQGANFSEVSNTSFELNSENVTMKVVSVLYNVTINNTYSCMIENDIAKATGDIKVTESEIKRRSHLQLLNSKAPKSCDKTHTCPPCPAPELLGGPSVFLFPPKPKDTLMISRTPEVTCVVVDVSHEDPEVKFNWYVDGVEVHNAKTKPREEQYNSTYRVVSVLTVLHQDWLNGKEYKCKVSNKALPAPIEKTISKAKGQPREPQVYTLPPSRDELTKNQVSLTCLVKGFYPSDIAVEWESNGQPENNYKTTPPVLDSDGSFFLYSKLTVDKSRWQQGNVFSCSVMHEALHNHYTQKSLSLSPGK

[3] = target: T2, human B7-H4 expressed on cells; assay: flow cytometry, SK-BR-3 cells
Procedure: as §1

[4] = target: T6, IgC domain of mouse B7-H4-Fc (mouse; human); assay: ELISA, coated mB7-H4 IgC domain
T6 construct: also called mB7-H4 IgC domain
T6 sequence (chain, as listed by the source): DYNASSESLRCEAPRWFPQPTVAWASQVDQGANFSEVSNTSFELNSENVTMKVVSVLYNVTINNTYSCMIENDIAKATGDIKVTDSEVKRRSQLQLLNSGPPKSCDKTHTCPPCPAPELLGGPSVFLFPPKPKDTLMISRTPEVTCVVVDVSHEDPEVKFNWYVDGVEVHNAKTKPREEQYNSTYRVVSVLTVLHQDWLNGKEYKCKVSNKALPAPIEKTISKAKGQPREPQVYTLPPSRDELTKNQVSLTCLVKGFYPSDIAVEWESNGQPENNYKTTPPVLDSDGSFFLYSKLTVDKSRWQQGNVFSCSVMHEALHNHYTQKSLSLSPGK

[5] = target: T7, mouse B7-H4-Fc (mouse; human); assay: ELISA, coated mB7-H4-Fc
T7 construct: also called mB7-H4-Fc; mB7-H4-hFc
T7 sequence (chain, as listed by the source): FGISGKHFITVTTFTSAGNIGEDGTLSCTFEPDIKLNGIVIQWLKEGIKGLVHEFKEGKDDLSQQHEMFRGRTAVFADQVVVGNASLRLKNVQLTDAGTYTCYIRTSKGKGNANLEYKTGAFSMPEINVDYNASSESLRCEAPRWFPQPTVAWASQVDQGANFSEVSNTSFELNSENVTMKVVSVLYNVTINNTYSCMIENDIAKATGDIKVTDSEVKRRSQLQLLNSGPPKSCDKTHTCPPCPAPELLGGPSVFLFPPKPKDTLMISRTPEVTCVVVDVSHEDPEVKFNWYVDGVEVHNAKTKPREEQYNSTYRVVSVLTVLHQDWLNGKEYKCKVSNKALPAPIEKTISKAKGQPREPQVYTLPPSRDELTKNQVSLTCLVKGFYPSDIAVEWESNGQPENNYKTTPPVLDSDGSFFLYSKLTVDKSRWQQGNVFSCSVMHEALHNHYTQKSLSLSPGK
Procedure: (§2) About 1-2 μg/ml of human or mouse B7-H4-Fc (or his-tagged) was immobilized on ELISA plates (Immuno 2HB, Thermo scientific, cat #3455) at 4° C. overnight. After blocking the plates with 3% PBS+milk, serial diluted antibodies were added to the blocked plates and incubated at RT for 1-1.5 h. After washing the plates with PBS-T (0.05%), horse radish peroxidase (HRP)-conjugated antibody targeting the hFab was added to the plate. Signals were developed by adding 3,3′,5,5′-Tetramethylbenzidine (TMB (followed 1N of H₂SO₄ to stop the reaction. The OD at 450 nm was read by ELISA plate reader (Infinite M1000 from TECAN). GraphPad from Prism was used to plot OD450 vs. antibody concentration curve and to calculate the EC50 values.

[6] = target: T3, mB7-H4 (soluble mouse B7-H4, construct …); assay: ELISA, mB7-H4
Procedure: as §2

[7] = target: T4, hB7-H4 (soluble human B7-H4, construct …); assay: ELISA, hB7-H4
Procedure: as §2

[8] = target: T4, hB7-H4 (soluble human B7-H4, construct …); assay: SPR (Biacore)
Procedure: (§3) Surface plasmon resonance experiments were performed using a Biacore T200 instrument equipped with CM5 sensor chips. The system was equilibrated in running buffer HBS-EP pH 7.4. The ligands were immobilized using amine-coupling chemistry. The surfaces of flow cells one through four were activated for 5 min using an amine coupling kit at a flow rate of […]. The ligands (human B7-H4-Fc, human B7-H4-hism and mouse B7-H4-Fc; at a concentration of 5 μg/ml in 10 mM sodium acetate, pH 5.0) were immobilized at a density of 50-100 RU on flow cell 2, 3, 4 respectively. Flow cell 1 was left blank to serve as a reference surface. All flow cell surfaces were blocked with a 5 min injection of 1 M ethanolamine, pH 8.0. To collect kinetic binding data, the respective analyte (diluted in 1×HBS-EP buffer, pH 7.4) was injected over the four flow cells at concentrations of 100 nM to 0.1 nM at a flow rate of […] and at a temperature of 25° C. The protein complex was allowed to associate and dissociate for 180 seconds and 1000 or 1200 seconds, respectively. The surfaces were regenerated with a 30 second injection of 1.5 M NaCl/0.05 M NaOH. The data were fit to a simple 1:1 interaction model using the Langmuir fit option available within the Biaevaluaton software

[9] = target: T3, mB7-H4 (soluble mouse B7-H4, construct …); assay: SPR (Biacore)
Procedure: as §3

[10] = target: T6, IgC domain of mouse B7-H4-Fc; assay: ELISA, coated mB7-H4 IgC domain (title on the sheet: IgC domain of mB7H4)
Procedure: as §2

[11] = target: T1, mouse B7-H4 expressed on cells; assay: flow cytometry, CHO cells expressing mB7-H4
[12] = target: T5, IgC domain of human B7-H4-Fc; assay: ELISA, coated hB7-H4 IgC domain (title on the sheet: IgC domain of hB7H4)
Procedure: as §2

[13] = target: T8, IgV domain of mouse B7-H4-Fc (mouse; human); assay: ELISA, coated mB7-H4 IgV domain
T8 construct: also called mB7-H4 IgV domain
T8 sequence (chain, as listed by the source): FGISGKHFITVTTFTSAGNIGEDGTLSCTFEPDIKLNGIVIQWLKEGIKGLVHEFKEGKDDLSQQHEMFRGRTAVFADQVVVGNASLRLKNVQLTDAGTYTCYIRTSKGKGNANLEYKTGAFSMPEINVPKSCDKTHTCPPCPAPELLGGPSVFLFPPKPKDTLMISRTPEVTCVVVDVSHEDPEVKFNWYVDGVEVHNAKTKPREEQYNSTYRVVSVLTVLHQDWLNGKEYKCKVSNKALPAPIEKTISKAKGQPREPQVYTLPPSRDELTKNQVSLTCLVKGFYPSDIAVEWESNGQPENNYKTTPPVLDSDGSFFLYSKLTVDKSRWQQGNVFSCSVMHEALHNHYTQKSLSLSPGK
Procedure: as §2

EC50 [1] [nM] | binding result [2] | EC50 [3] [nM] | binding result [4] | binding result [5] | EC50 [6] [nM] | EC50 [7] [nM] | Kd [8] [nM] | Kd [9] [nM] | koff [9] [s⁻¹] | EC50 (read off the curve) [11] [nM] | Binder | binding result [10] | binding result [12] | binding result [13]
1.63 | no binding (tested: log 1 nM (10 nM)) | 2.07 | no binding (tested: log 1 nM (10 nM)) | binds | 0.128 | 0.086 | 0.478 | 0.00125 | 6.22e-07 |  | 39A11/57H3 (antibody, human IgG1, V domains shown, 39A11 VH with 57H3 VL) VH: EVQLLESGGGLVQPGGSLRLSCAASGFTFSSYGMHWVRQAPGKGLEWVASISSSSGYIYYADSVKGRFTISRDNSKNTLYLQMNSLRAEDTAVYYCARASSGMDVWGQGTTVTVSS VL: DIQMTQSPSSLSASVGDRVTITCQASQDIRKYLNWYQQKPGKAPKLLIYAASTRESGVPSRFSGSGSGTDFTLTISSLQPEDFATYYCQQYYSLPLTFGQGTKLEIK |  |  | 
1.32 | no binding (tested: log 1 nM (10 nM)) | 1.31 | no binding (tested: log 1 nM (10 nM)) | binds | 0.124 | 0.079 | 0.853 | 1.85 |  |  | 39A11/62F9 (antibody, human IgG1, V domains shown, 39A11 VH with 62F9 VL) VH: EVQLLESGGGLVQPGGSLRLSCAASGFTFSSYGMHWVRQAPGKGLEWVASISSSSGYIYYADSVKGRFTISRDNSKNTLYLQMNSLRAEDTAVYYCARASSGMDVWGQGTTVTVSS VL: DIQMTQSPSSLSASVGDRVTITCRASQSVSSAVAWYQQKPGKAPKLLIYAASIRESGVPSRFSGSGSGTDFTLTISSLQPEDFATYYCQQYYSTPLTFGQGTKLEIK |  |  | 
 |  | 0.79 |  |  |  | 0.056 | 0.015 |  |  | ~8 | 3F2/49A2 (antibody, human IgG1, V domains shown, 3F2 VH with 49A2 VL) VH: QVQLVQSGAEVKKPGASVKVSCKASGYTFTAQYMYWVRQAPGQGLEWMGRINPTSGNTVYAQKLQGRVTMTRDTSTSTVYMELSSLRSEDTAVYYCARGINWFDPWGQGTLVTVSS VL: DIQMTQSPSSLSASVGDRVTITCRASQNIDTYVNWYQQKPGKAPKLLIYAASRLHTVPSRFSGSGSGTDFTLTISSLQPEDFATYYCQQSYTSPFTFGGGTKVEIK | no binding (tested: axis value -8 (labelled log nM)) | no binding (tested: axis value -8 (labelled log nM)) | no binding (tested: axis value -8 (labelled log nM))

From patent US20230312724A1 (KADMON, published 2023)
